Here are results for one molecule from article PMC7153820 (Oncoimmunology, 2020).

For assay [1], the target named is human TIM-3 on primary blood cells (Homo sapiens (Human)., UniProt Q8TDQ0). In words: flow cytometry on cells. Background: Flow cytometry measures light scatter and fluorescence of single cells or particles in a stream.
Assay [2] addresses rhTIM-3-Fc AF647 (R&D Systems 2365-TM) (Homo sapiens (Human)., UniProt Q8TDQ0, AF647). Briefly: flow cytometry on cells.
In assay [3] the target is biotinylated recombinant human TIM-3-Fc chimera (R&D Systems 2365-TM) (human, UniProt Q8TDQ0, biotin (EZ-Link Sulfo-NHS-LC-Biotinylation kit)). Briefly: ELISA.
The target of assay [4] is rhTIM-3-IgG1-Fc (human, UniProt Q8TDQ0). Briefly: ELISA.

B1: M6903, fully human anti-TIM-3 monoclonal IgG2 antibody (antibody, V domains shown)
VH: not shown
VL: QSALTQPRSVSGSPGQSVTISCTGTSSDVGGYNYVSWYQQHPGKAPKLMIYDVSKRPSGVPDRFSGSKSGNTASLTISGLQAEDEADYYCSSYADSVVFGGGTKVTVL
As a reminder, the EC50 is the midpoint of the concentration-response curve. Read a high EC50 as a need for much substance. The term IC50 denotes the concentration needed to halve the response being measured. As to B1, the EC50 in assay [1] worked out at 0.74 ± 0.57 nM. For the same molecule, the IC50 amounted to 4.44 ± 3.12 nM in assay [2], 7.46 ± 0.052 nM in assay [3] and 0.353 ± 0.383 nM in assay [4].
